# In patent publication US20240287166A1 (published 2024):
# Molecular target: T1, CSP on P. falciparum sporozoites (Plasmodium falciparum, UniProt P19597 19-374)
# T1 construct: whole, on cells; also called P. falciparum sporozoites, which present CSP in its native conformation
# Assay: sporozoite ELISA, mouse sera Day 7 (FIG. 6D)
# T1 sequence (P19597 19-374): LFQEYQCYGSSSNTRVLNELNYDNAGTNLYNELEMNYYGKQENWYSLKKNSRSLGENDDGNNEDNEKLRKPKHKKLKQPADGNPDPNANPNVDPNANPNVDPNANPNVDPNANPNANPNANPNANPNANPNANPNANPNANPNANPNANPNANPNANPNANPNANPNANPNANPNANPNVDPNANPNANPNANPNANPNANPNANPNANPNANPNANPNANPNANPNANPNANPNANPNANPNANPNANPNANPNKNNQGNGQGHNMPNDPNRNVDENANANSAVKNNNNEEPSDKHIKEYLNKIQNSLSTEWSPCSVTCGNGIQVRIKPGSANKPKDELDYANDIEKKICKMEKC
binder,measurement,value
"10e DMAb-2 (antibody, human IgG1, lambda, V domains shown, also called MGU10-based engineered DMAb 2; 10e DMAb-2 (MGU10 VH-1 / MGU10 VL)) VH: QVQLVESGGGVVQPGRSLRLSCAASGFAFSNYGMHWVRQAPGKGLEWVAVIWHDGSLKYYTQSVKGRFTISRDNSKNTLYLQMNSLRAEDTAVYYCTVWYLETPDDGFDIWGQGTMVTVSS VL: QLVLTQPPSASASLGVSVTLTCTLSHGHTSKAIAWHQQQPGKGPRYLMKVNSDGSHTKGAAVPDRFSGSTSGAERHFTISNLQSDDEADYYCQAWDSGIWVFGGGTKLTVLG",binding result,binds
